Measurements reported in patent publication US20160280799.

Target: All other MMP-12 binders

B1: human MMP-12 catalytic domain (protein)
chain: GPVWRKHYITYRINNYTPDMNREDVDYAIRKAFQVWSNVTPLKFSKINTGMADILVVFARGAHGDFHAFDGKGGILAHAFGPGSGIGGDAHFDEDEFWTTHSGGTNLFLTAVHEIGHSLGLGHSSDPKAVMFPTYKYVDINTFRLSADDIRGIQSLYG
MMP-12 proteolytic activity, colorimetric assay (BIOMOL AK-402), VHH at 7 µM: did not inhibit MMP-12
